Reference: the RNAGym collection of RNA variant scans (doi:10.7554/elife.80360)

B1: CPEB3 Ribozyme (parent)
chain: GGGGGCCACAGCAGAAGCGUUCACGUCGCGGCCCCUGUCAGAUUCUGGUGAAUCUGCGAAUUCUGCUGU

Variants of: B1
Experiment: self-cleavage, relative activity (ratio to wild type); higher = more cleavage; co-transcriptional

Variant | self-cleavage
U20A G37A | 0.13
U20A G37C | 0.156
U20C A59C | 0.124
U20C A59U | 0.15
U20C A59G | 0.277
U20C U21A | 0.208
U20A U44C | 0.139
U20A U44A | 0.15
U20A U44G | 0.204
G19C U49G | 0.182
G19C U49C | 0.104
G19U G68U | 0.738
G19U G68C | 0.791
G19U U44A | 0.354
G19U U44G | 0.398
G19U U20C | 0.166
G19U U20A | 0.0978
G19C U21A | 0.109
G19C U21C | 0.142
U20A U49A | 0.125
G19U G30A | 0.143
G19U G30U | 0.166
U20C U43C | 0.212
G19U C35G | 0.199

Variant | self-cleavage
U20C G58U | 0.204
U20C G58C | 0.147
U20C G58A | 0.161
U20A C24U | 0.0896
U20A C24A | 0.203
U20C C33U | 0.219
U20C C33A | 0.286
U20C C33G | 0.113
U20A U62A | 0.0929
U20A U55C | 0.118
U20A U55A | 0.237
U20A U55G | 0.112
U20A G65C | 0.113
U20A G65U | 0.19
G19U G41C | 0.16
G19U G41U | 0.157
G19U G41A | 0.181
G19U C32A | 0.281
G19U C32G | 0.157
U20C U46A | 0.262
U20A A42C | 0.0988
U20A A42G | 0.0639
U20C G65A | 0.141
G19U A40C | 0.189

Variant | self-cleavage
G19U A40U | 0.237
G19U A40G | 0.332
U20A U43G | 0.123
U20A U43C | 0.154
U20C A42G | 0.161
G19C U36A | 0.188
G19C U36G | 0.141
G19C U36C | 0.0775
G19U C33A | 0.101
G19U C33G | 0.203
G19U C33U | 0.519
G19U C22G | 0.164
G19U C22U | 0.107
G19U C22A | 0.14
G19U U43C | 0.333
G19U U43G | 0.223
G19U U43A | 0.202
U20C A51G | 0.272
G19C U67G | 0.159
G19C U67A | 0.0765
G19U G25U | 0.14
G19U G25C | 0.122
G19U G25A | 0.177
U20A U38G | 0.23

Variant | self-cleavage
G19C U38G | 0.185
G19U A59U | 0.158
G19U A59G | 0.66
G19U U62A | 0.244
G19U U62G | 0.251
G19U U62C | 0.256
U20A G41C | 0.133
G19U C24G | 0.121
U20C U26C | 0.235
U20C U26G | 0.114
U20C U26A | 0.205
G19U U46G | 0.596
G19U U46A | 0.591
G19U U46C | 0.499
U20C C66U | 0.272
U20C C66A | 0.204
U20A C57G | 0.092
U20A C57A | 0.195
U20A C57U | 0.152
U20A U61C | 0.137
U20A U61G | 0.137
U20A U61A | 0.123
U20C C27G | 0.136
U20C C27U | 0.114

Variant | self-cleavage
U20C A40G | 0.212
G19U G58U | 0.553
G19U G58A | 0.352
G19U C54A | 0.182
G19U C54G | 0.317
G19U C54U | 0.625
G19U U61G | 0.262
G19U U61C | 0.194
G19U U61A | 0.217
G19C U53G | 0.158
G19C U53A | 0.224
G19U U38G | 0.201
G19U U38A | 0.227
G19U U36G | 0.222
G19U C57U | 0.21
G19U C57G | 0.218
U20C C39U | 0.176
U20C C39G | 0.201
U20C C39A | 0.224
U20A G50U | 0.141
U20A G50C | 0.188
G19C G68U | 0.13
G19C G68A | 0.201
G19C G68C | 0.187

Variant | self-cleavage
G19U A23U | 0.494
G19U A23C | 0.333
G19U G28A | 0.122
G19U G28U | 0.116
U20A C34A | 0.196
U20A C34U | 0.0989
U20A C34G | 0.196
G19C U43A | 0.127
G19U G50A | 0.543
G19U G50C | 0.458
G19U G56A | 0.301
G19U G56C | 0.222
U20C G50U | 0.245
U20A C32A | 0.153
U20A C32G | 0.171
U20A C32U | 0.148
G19C U69G | 0.231
G19C U69C | 0.357
U20A C54G | 0.194
U20A C54U | 0.124
G19U C63A | 0.179
U20C G28C | 0.133
U20C G28A | 0.117
U20C A52C | 0.181

Variant | self-cleavage
U20C A52U | 0.109
U20C C22U | 0.229
U20C C22G | 0.214
U20A C29A | 0.194
U20A C29G | 0.157
U20A C29U | 0.155
U20C G48U | 0.242
U20C G48A | 0.189
U20A A59G | 0.125
U20A A59C | 0.0876
U20C U44A | 0.185
U20C G25C | 0.249
U20C G25U | 0.616
U20C G25A | 0.68
U20C G37U | 0.114
U20C G37A | 0.102
G19U U49G | 0.459
G19U U49C | 0.594
G19C U26A | 0.13
G19C U26C | 0.153
G19C U26G | 0.109
U20A A60G | 0.146
U20A A60C | 0.114
